# Laboratory results as given in EP4471049A1 (Zealand Pharma A/S, priority 2023, dated 2024).
# *1 amine or outer side, *2 acyl side, *3 side chain or, on linkers, in order; H or OH if unused. Where a SMILES comes first, the peptide text is derived from it. Bridges are numbered along the chain shown (N, C = ends). Primed or numbered codes have the meaning given here. Where no end group is shown, it is not given here. [ ]: non-standard residue; d: D form. 4‑Aminomethyl‑phenylacetyl = 4-aminomethyl-phenylacetyl unit, its amine closes the lactam, O=C(Cc1ccc(CN[*:1])cc1)[*:2]; Q(pyrrolidin)(3) = Gln whose side-chain amide N is in a pyrrolidine ring, O=C(CC[C@H](N[*:1])C(=O)[*:2])N1CCCC1; 2Nal = N[C@@H](Cc1ccc2ccccc2c1)C(=O)O; AEF = NCCOc1ccc(C[C@H](N)C(=O)O)cc1; X1 = O=C(Cc1ccc(CN[*:1])cc1)[*:2]; 3Pal = N[C@@H](Cc1cccnc1)C(=O)O; Cit = NC(=O)NCCC[C@H](N)C(=O)O; αMeL = CC(C)C[C@](C)(N)C(=O)O; NMeS = CN[C@@H](CO)C(=O)O; Orn = NCCC[C@H](N)C(=O)O; Q(Me) = not defined here; Dab = NCC[C@H](N)C(=O)O; βAla = NCCC(=O)O
# T1: human IL-23R (Homo sapiens, UniProt Q5VWK5)
# T1 sequence (Q5VWK5 22-629): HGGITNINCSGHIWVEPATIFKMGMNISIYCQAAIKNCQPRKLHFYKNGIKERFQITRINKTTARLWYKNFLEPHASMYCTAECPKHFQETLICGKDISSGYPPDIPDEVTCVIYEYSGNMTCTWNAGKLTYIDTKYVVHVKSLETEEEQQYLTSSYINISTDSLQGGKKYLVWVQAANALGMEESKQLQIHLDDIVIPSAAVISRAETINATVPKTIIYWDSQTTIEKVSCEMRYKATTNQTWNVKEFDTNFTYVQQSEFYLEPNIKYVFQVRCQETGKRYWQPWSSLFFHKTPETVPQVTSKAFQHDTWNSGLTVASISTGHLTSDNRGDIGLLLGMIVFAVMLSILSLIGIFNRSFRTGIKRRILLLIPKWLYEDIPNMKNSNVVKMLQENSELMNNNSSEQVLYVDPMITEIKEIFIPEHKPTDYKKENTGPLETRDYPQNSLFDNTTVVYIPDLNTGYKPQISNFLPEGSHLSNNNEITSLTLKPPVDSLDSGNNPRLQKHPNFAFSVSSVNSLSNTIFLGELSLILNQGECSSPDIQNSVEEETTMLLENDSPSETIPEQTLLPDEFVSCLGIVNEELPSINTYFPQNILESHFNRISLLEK
# T2: Nluc-IL23R fusion protein (human, UniProt Q5VWK5 22-629)
# T2 construct: range 22-629; expressed with a secretion signal in HEK293 cells; used as crude membrane preparation; also called hIL-23R; human IL-23R; not shown: Nanoluc protein from the expression plasmid N1371 (Promega), N-terminal of IL-23R
# T2 sequence (looked up): T1 sequence (Q5VWK5 22-629)
# B1: Compound 30 (peptide)
# peptide: [4‑Aminomethyl‑phenylacetyl]SEW[Q(2Me)][Dab][AEF][2Nal][αMeL]E[Dab][3Pal]-NHMe
# modifications: lactam N-10, 3-6
# B2: Compound 27 (peptide)
# peptide: [4‑Aminomethyl‑phenylacetyl]SEW[Q(pyrrolidin)(3)][Dab][AEF][2Nal][αMeL]E[Dab][3Pal]-NHMe
# modifications: lactam N-10, 3-6
# B3: Compound 31 (peptide)
# peptide: [4‑Aminomethyl‑phenylacetyl]SEWQ[Dab][AEF][2Nal][αMeL]ES[3Pal]-NHMe
# modifications: lactam N-10, 3-6
# B4: Compound 28 (peptide)
# peptide: [4‑Aminomethyl‑phenylacetyl]SEW[Orn][Dab][AEF][2Nal][αMeL]E[Dab][3Pal]-NHMe
# modifications: lactam N-10, 3-6
# SMILES: CNC(=O)[C@H](Cc1cccnc1)NC(=O)[C@H](CCN)NC(=O)[C@@H]1CCC(=O)NCc2ccc(cc2)CC(=O)N[C@@H](CO)C(=O)N[C@H]2CCC(=O)NCC[C@H](NC(=O)[C@H](CCCN)NC(=O)[C@H](Cc3c[nH]c4ccccc34)NC2=O)C(=O)N[C@@H](Cc2ccc(OCCN)cc2)C(=O)N[C@@H](Cc2ccc3ccccc3c2)C(=O)N[C@@](C)(CC(C)C)C(=O)N1
# B5: Compound 1 (peptide)
# peptide: [βAla][3Pal]SCWQC[AEF][2Nal][αMeL]E[dR]-NH2
# modifications: lactam N-11; linker 4-7 via 1,3‑dithio‑propan‑2‑one
# B6: Compound 33 (peptide)
# peptide: [4‑Aminomethyl‑phenylacetyl]SEWQ[Dab][AEF][2Nal][αMeL]EQ[3Pal]-NHMe
# modifications: lactam N-10, 3-6
# SMILES: CNC(=O)[C@H](Cc1cccnc1)NC(=O)[C@H](CCC(N)=O)NC(=O)[C@@H]1CCC(=O)NCc2ccc(cc2)CC(=O)N[C@@H](CO)C(=O)N[C@H]2CCC(=O)NCC[C@H](NC(=O)[C@H](CCC(N)=O)NC(=O)[C@H](Cc3c[nH]c4ccccc34)NC2=O)C(=O)N[C@@H](Cc2ccc(OCCN)cc2)C(=O)N[C@@H](Cc2ccc3ccccc3c2)C(=O)N[C@@](C)(CC(C)C)C(=O)N1
# B7: Compound 24 (peptide)
# peptide: [4‑Aminomethyl‑phenylacetyl]SEWK(Ac)[Dab][AEF][2Nal][αMeL]E[Dab][3Pal]-NHMe
# modifications: lactam N-10, 3-6
# SMILES: CNC(=O)[C@H](Cc1cccnc1)NC(=O)[C@H](CCN)NC(=O)[C@@H]1CCC(=O)NCc2ccc(cc2)CC(=O)N[C@@H](CO)C(=O)N[C@H]2CCC(=O)NCC[C@H](NC(=O)[C@H](CCCCNC(C)=O)NC(=O)[C@H](Cc3c[nH]c4ccccc34)NC2=O)C(=O)N[C@@H](Cc2ccc(OCCN)cc2)C(=O)N[C@@H](Cc2ccc3ccccc3c2)C(=O)N[C@@](C)(CC(C)C)C(=O)N1
# B8: Compound 26 (peptide)
# peptide: [4‑Aminomethyl‑phenylacetyl]SEW[Cit][Dab][AEF][2Nal][αMeL]E[Dab][3Pal]-NHMe
# modifications: lactam (positions not given here); lactam 3-6; not fully specified (bridges)
# B9: Compound 2 (peptide)
# peptide: [3Pal][βAla]SCWQC[AEF][2Nal][αMeL]E[dR]-NH2
# modifications: lactam N-11; linker 4-7 via 1,3‑dithio‑propan‑2‑one
# B10: Compound 25 (peptide)
# peptide: [4‑Aminomethyl‑phenylacetyl]SEW[Dab](Ac)[Dab][AEF][2Nal][αMeL]E[Dab][3Pal]-NHMe
# modifications: lactam (positions not given here); lactam 3-6; not fully specified (bridges)
# B11: Compound 40 (peptide)
# peptide: [4‑Aminomethyl‑phenylacetyl]AEWQ[Dab][AEF][2Nal][αMeL]ES[3Pal]-NHMe
# modifications: lactam N-10, 3-6
# SMILES: CNC(=O)[C@H](Cc1cccnc1)NC(=O)[C@H](CO)NC(=O)[C@@H]1CCC(=O)NCc2ccc(cc2)CC(=O)N[C@@H](C)C(=O)N[C@H]2CCC(=O)NCC[C@H](NC(=O)[C@H](CCC(N)=O)NC(=O)[C@H](Cc3c[nH]c4ccccc34)NC2=O)C(=O)N[C@@H](Cc2ccc(OCCN)cc2)C(=O)N[C@@H](Cc2ccc3ccccc3c2)C(=O)N[C@@](C)(CC(C)C)C(=O)N1
# B12: Ref 141 (peptide)
# peptide: [4‑Aminomethyl‑phenylacetyl][NMeS]CWQC[AEF][2Nal][αMeL]E[Dab]-NH2
# modifications: lactam N-10; bridge 3-6; not fully specified (bridges); printed as [4-Aminomethyl-phenylacetyl](1c)*[N-Me-Ser]C(2a)WQC(2a)[Y(2-aminoethoxy)][2-Nal][2-Me-Leu]E(1c)[Dab]-[NH2]
# B13: Compound 34 (peptide)
# peptide: [4‑Aminomethyl‑phenylacetyl]SEWQ[Dab][AEF][2Nal][αMeL]EH[3Pal]-NHMe
# modifications: lactam N-10, 3-6
# SMILES: CNC(=O)[C@H](Cc1cccnc1)NC(=O)[C@H](Cc1c[nH]cn1)NC(=O)[C@@H]1CCC(=O)NCc2ccc(cc2)CC(=O)N[C@@H](CO)C(=O)N[C@H]2CCC(=O)NCC[C@H](NC(=O)[C@H](CCC(N)=O)NC(=O)[C@H](Cc3c[nH]c4ccccc34)NC2=O)C(=O)N[C@@H](Cc2ccc(OCCN)cc2)C(=O)N[C@@H](Cc2ccc3ccccc3c2)C(=O)N[C@@](C)(CC(C)C)C(=O)N1
# B14: Compound 29 (peptide)
# peptide: [4‑Aminomethyl‑phenylacetyl]SEW[Q(Me)][Dab][AEF][2Nal][αMeL]E[Dab][3Pal]-NHMe
# modifications: lactam N-10, 3-6; reading uncertain
# Assays:
# human IL-23R = target: T1, human IL-23R; test: biochemical
# Summary of the method: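 Membranes from HEK293 cells stably expressing Nluc-tagged human IL-23R were incubated 2 h at room temperature with test compound and a fluorophore-labelled tracer. After substrate addition, loss of BRET (TAMRA over luciferase emission) reported tracer displacement. A 4PL fit gave IC50 values.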
# [1] = Peptide stability in simulated intestinal fluid (SIF); format: in vitro ADME; conditions: pig, simulated intestinal fluid (SIF) with porcine pancreatin, 37 °C, pH 6.8, porcine pancreatin 10 g/L, 10 µM; for remaining at 4 h, 10 µM: read-out: SIF (% remaining 4 h)
# Protocol: SGF was prepared by dissolving sodium chloride (0.2 g) in 50 mL of water. A volume of 0.7 mL of 10 M HCl was added to adjust the pH of the solution to 1.2 and the volume made up to 100 mL with water. […] SIF was prepared by dissolving monobasic potassium phosphate (0.68 g) in 50 mL of water and adjusting the pH to 6.8 with 1 M NaOH. The volume was subsequently made up to 100 mL with water. 200 mg porcine pancreatin (P1625, Sigma Aldrich) was gently dissolved into 20 mL preheated (37 °C) solution (10 g/L) immediately prior to the incubation.
# The incubation was performed at 37 °C with gentle shaking. […] After the last timepoint, the sampling plate was mixed for 10 min on a shaking table and centrifuged 10 min at 2200 g. 70 µL resulting supernatant was diluted with 150 µL water, mixed and centrifugated before analysis by liquid chromatography high resolution mass spectrometry. […] Percent remaining at each timepoint was calculated relative to timepoint zero based on absolute peak areas.
# Compounds with a SIF stability (after 4 h) above 70% are considered highly SIF stable.
# [2] = target: T2, Nluc-IL23R fusion protein; test: BRET competition vs TAMRA-labelled peptide, Nluc-IL23R membranes
Molecule,% displacement (hIL-23R binding) [2],other results
"CNC(=O)CC[C@@H]1NC(=O)[C@H](Cc2c[nH]c3ccccc23)NC(=O)[C@@H]2CCC(=O)NCC[C@H](NC1=O)C(=O)N[C@@H](Cc1ccc(OCCN)cc1)C(=O)N[C@@H](Cc1ccc3ccccc3c1)C(=O)N[C@@](C)(CC(C)C)C(=O)N[C@H](C(=O)N[C@@H](CCN)C(=O)N[C@@H](Cc1cccnc1)C(=O)NC)CCC(=O)NCc1ccc(cc1)CC(=O)N[C@@H](CO)C(=O)N2 [Compound 29, [4-Aminomethyl-phenylacetyl](1c)*SE(2c)W[Q(Me)][Dab](2c)[Y(2-aminoethoxy)][2-Nal][2-Me-Leu]E(1c)[Dab][3-(3-Pyridyl)-Ala]-[NHMe]] ([X1]SEWE(NHMe)[Dab][AEF][2Nal][αMeL]E[Dab][3Pal]-NHMe; lactam 3-6, N-10)",–,"% displacement (hIL-23R binding) (human IL-23R): 96%; remaining at 4 h, 10 µM [1]: 92%"
"CNC(=O)[C@H](Cc1cccnc1)NC(=O)[C@H](CCN)NC(=O)[C@@H]1CCC(=O)NCc2ccc(cc2)CC(=O)N[C@@H](C)C(=O)N[C@H]2CCC(=O)NCC[C@H](NC(=O)[C@H](CCC(N)=O)NC(=O)[C@H](Cc3c[nH]c4ccccc34)NC2=O)C(=O)N[C@@H](Cc2ccc(OCCN)cc2)C(=O)N[C@@H](Cc2ccc3ccccc3c2)C(=O)N[C@@](C)(CC(C)C)C(=O)N1 [Compound 20, [4-Aminomethyl-phenylacetyl](1c)*AE(2c)WQ[Dab](2c)[Y(2-aminoethoxy)][2-Nal][2-Me-Leu]E(1c)[Dab][3-(3-Pyridyl)-Ala]-[NHMe]]",–,"% displacement (hIL-23R binding) (human IL-23R): 97%; IC50 (human IL-23R): 0.012 nM; remaining at 1 h, 10 µM ([1]; 1 h): 109%; remaining at 4 h, 10 µM [1]: 90%"
B1,104%,–
B2,97%,IC50 [2]: 0.017 nM
B3,97%,–
B4,97%,IC50 [2]: 0.011 nM
B5,105%,–
B6,92%,–
B7,97%,–
B8,95%,–
B9,103%,–
B10,93%,IC50 [2]: 0.011 nM
B11,100%,–
B12,102%,–
B13,90%,–
B14,96%,IC50 [2]: 0.011 nM
